Measured values: patent publication US20230212319A1, “NOVEL ANTIGEN BINDING DOMAINS AND SYNTHETIC ANTIGEN RECEPTORS INCORPORATING THE SAME” (University of Southern California, priority 2020, published 2023)

B1: 22238 (protein)
chain: MALPVTALLLPLALLLHAARPDIQMTQSPSSLSASVGDRVTITCKASDHINNWLAWYQQKPGQAPKLLIYGATTLETGVPSRFSGSGSGTDYTLTISSLQPEDFATYYCQQSWNTPWTFGQGTKLEIKRLEDLKNVFPPEVAVFEPSEAEISHTQKATLVCLATGFYPDHVELSWWVNGKEVHSGVCTDPQPLKEQPALNDSRYCLSSRLRVSATFWQNPRNHFRCQVQFYGLSENDEWTQDRAKPVTQIVSAEAWGRADCGFTSESYQQGVLSATILYEILLGKATLYAVLVSALVLMAMVKRKDSRGRAKRSGSGATNFSLLKQAGDVEENPGPTSATMDWIWRILFLVGAATGAHSQLGPYELWELSHGSGSGSGSQLGPYELWELSHSGGGSGQLGPYELWELSHGSSGPEVQLVESGGGLVQAGGSLRLSCAASGRTFSMGWFRQAPGKEREFVAAITYSGGSPYYADSVKGRFTISRDNAKNTVYLQMNSLKPEDTAVYYCAANPTYGSDWNAENWGQGTQVTVSSGSGGGGSGGGGSGGGGSFEQVQLQQPGAELVKPGASVKMSCKASGYAFSSYWINWMKQKPGQGLEWIGQIYPGDGDTNYNGKFKGRATLTADTSSSTAYMQLSSLTSEDSAVYFCARSITTVVGCAMDYWGQGTSVTVSSTRIQNPDPAVYQLRDSKSSDKSVCLFTDFDSQTNVSQSKDSDVYITDKCVLDMRSMDFKSNSAVAWSNKSDFACANAFNNSIIPEDTFFPSPESSCDVKLVEKSFETDTNLNFQNLSVIGFRILLLKVAGFNLLMTLRLWSSRAKRSGSGVKQTLNFDLLKLAGDVESNPGPSRGHMTEYKPTVRLATRDDVPRAVRTLAAAFADYPATRHTVDPDRHIERVTELQELFLTRVGLDIGKVWVADDGAAVAVWTTPESVEAGAVFAEIGPRMAELSGSRLAAQQQMEGLLAPHRPKEPAWFLATVGVSPDHQGKGLGSAVVLPGVEAAERAGVPAFLETSAPRNLPFYERLGFTVTADVEVPEGPRTWCMTRKPGA
B2: 22240 (protein)
chain: MALPVTALLLPLALLLHAARPDIQMTQSPSSLSASVGDRVTITCKASDHINNWLAWYQQKPGQAPKLLIYGATTLETGVPSRFSGSGSGTDYTLTISSLQPEDFATYYCQQSWNTPWTFGQGTKLEIKRLEDLKNVFPPEVAVFEPSEAEISHTQKATLVCLATGFYPDHVELSWWVNGKEVHSGVCTDPQPLKEQPALNDSRYCLSSRLRVSATFWQNPRNHFRCQVQFYGLSENDEWTQDRAKPVTQIVSAEAWGRADCGFTSESYQQGVLSATILYEILLGKATLYAVLVSALVLMAMVKRKDSRGRAKRSGSGATNFSLLKQAGDVEENPGPTSATMDWIWRILFLVGAATGAHSGPYINIYNAEPANPSEKNSPSTQYAYGGGSQLGPYELWELSHGSGGSGGGGSGGGGSGGGGSFEQVQLQQPGAELVKPGASVKMSCKASGYAFSSYWINWMKQKPGQGLEWIGQIYPGDGDTNYNGKFKGRATLTADTSSSTAYMQLSSLTSEDSAVYFCARSITTVVGCAMDYWGQGTSVTVSSTRIQNPDPAVYQLRDSKSSDKSVCLFTDFDSQTNVSQSKDSDVYITDKCVLDMRSMDFKSNSAVAWSNKSDFACANAFNNSIIPEDTFFPSPESSCDVKLVEKSFETDTNLNFQNLSVIGFRILLLKVAGFNLLMTLRLWSSRAKRSGSGVKQTLNFDLLKLAGDVESNPGPSRGHMTEYKPTVRLATRDDVPRAVRTLAAAFADYPATRHTVDPDRHIERVTELQELFLTRVGLDIGKVWVADDGAAVAVWTTPESVEAGAVFAEIGPRMAELSGSRLAAQQQMEGLLAPHRPKEPAWFLATVGVSPDHQGKGLGSAVVLPGVEAAERAGVPAFLETSAPRNLPFYERLGFTVTADVEVPEGPRTWCMTRKPGA
B3: 22239 (protein)
chain: MALPVTALLLPLALLLHAARPACPYINIYNAEPANPSEKNSPTQYAYGTGGGGSGGGGSGGGGSEFDIQMTQSPSSLSASVGDRVTITCKASDHINNWLAWYQQKPGQAPKLLIYGATTLETGVPSRFSGSGSGTDYTLTISSLQPEDFATYYCQQSWNTPWTFGQGTKLEIKRLEDLKNVFPPEVAVFEPSEAEISHTQKATLVCLATGFYPDHVELSWWVNGKEVHSGVCTDPQPLKEQPALNDSRYCLSSRLRVSATFWQNPRNHFRCQVQFYGLSENDEWTQDRAKPVTQIVSAEAWGRADCGFTSESYQQGVLSATILYEILLGKATLYAVLVSALVLMAMVKRKDSRGRAKRSGSGATNFSLLKQAGDVEENPGPTSATMDWIWRILFLVGAATGAHSGPQLGPYELWELSHGSGGGGSGGGGSGGGGSFEQVQLQQPGAELVKPGASVKMSCKASGYAFSSYWINWMKQKPGQGLEWIGQIYPGDGDTNYNGKFKGRATLTADTSSSTAYMQLSSLTSEDSAVYFCARSITTVVGCAMDYWGQGTSVTVSSTRIQNPDPAVYQLRDSKSSDKSVCLFTDFDSQTNVSQSKDSDVYITDKCVLDMRSMDFKSNSAVAWSNKSDFACANAFNNSIIPEDTFFPSPESSCDVKLVEKSFETDTNLNFQNLSVIGFRILLLKVAGFNLLMTLRLWSSRAKRSGSGVKQTLNFDLLKLAGDVESNPGPSRGHMTEYKPTVRLATRDDVPRAVRTLAAAFADYPATRHTVDPDRHIERVTELQELFLTRVGLDIGKVWVADDGAAVAVWTTPESVEAGAVFAEIGPRMAELSGSRLAAQQQMEGLLAPHRPKEPAWFLATVGVSPDHQGKGLGSAVVLPGVEAAERAGVPAFLETSAPRNLPFYERLGFTVTADVEVPEGPRTWCMTRKPGA
B4: 22241 (protein)
chain: MALPVTALLLPLALLLHAARPDIQMTQSPSSLSASVGDRVTITCKASDHINNWLAWYQQKPGQAPKLLIYGATTLETGVPSRFSGSGSGTDYTLTISSLQPEDFATYYCQQSWNTPWTFGQGTKLEIKRLEDLKNVFPPEVAVFEPSEAEISHTQKATLVCLATGFYPDHVELSWWVNGKEVHSGVCTDPQPLKEQPALNDSRYCLSSRLRVSATFWQNPRNHFRCQVQFYGLSENDEWTQDRAKPVTQIVSAEAWGRADCGFTSESYQQGVLSATILYEILLGKATLYAVLVSALVLMAMVKRKDSRGRAKRSGSGATNFSLLKQAGDVEENPGPTSATMDWIWRILFLVGAATGAHSYINIYNAEPANPSEKNSPSTQYAYGSGSSYINIYNAEPANPSEKNSPSTQYAYGSGGSYINIYNAEPANPSEKNSPSTQYAYGSGSSSYINIYNAEPANPSEKNSPSTQYAYGSGSGSYINIYNAEPANPSEKNSPSTQYAYGPSGSGGGGSGGGGSGGGGSFEQVQLQQPGAELVKPGASVKMSCKASGYAFSSYWINWMKQKPGQGLEWIGQIYPGDGDTNYNGKFKGRATLTADTSSSTAYMQLSSLTSEDSAVYFCARSITTVVGCAMDYWGQGTSVTVSSTRIQNPDPAVYQLRDSKSSDKSVCLFTDFDSQTNVSQSKDSDVYITDKCVLDMRSMDFKSNSAVAWSNKSDFACANAFNNSIIPEDTFFPSPESSCDVKLVEKSFETDTNLNFQNLSVIGFRILLLKVAGFNLLMTLRLWSSRAKRSGSGVKQTLNFDLLKLAGDVESNPGPSRGHMTEYKPTVRLATRDDVPRAVRTLAAAFADYPATRHTVDPDRHIERVTELQELFLTRVGLDIGKVWVADDGAAVAVWTTPESVEAGAVFAEIGPRMAELSGSRLAAQQQMEGLLAPHRPKEPAWFLATVGVSPDHQGKGLGSAVVLPGVEAAERAGVPAFLETSAPRNLPFYERLGFTVTADVEVPEGPRTWCMTRKPGA

The molecules below were run on RAJI cells (assay: JNG assay, co-culture with RAJI cells). Conditions: JNG cells expressing construct, co-culture with Raji.
Type: cell-based
How it was run: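 Jurkat NFAT-GFP (JNG) cells stably transduced with SARs by lentivirus, with drug selection where the construct carried a resistance gene, then co-cultured with target cells at E:T ~1:2 for ~4–18 h. % GFP-positive cells measured by FACS against parental JNG; +/- to 5+ correspond to ~5–50% GFP-positive.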

Row | Molecule | NFAT-GFP ASSAY: Raji
1 | B1 | Raji (+) (refer to approximately 5%, 10%, 20%, 30%, 40% and 50% GFP positive cells)
2 | B2 | Raji (3+) (refer to approximately 5%, 10%, 20%, 30%, 40% and 50% GFP positive cells)
3 | B3 | Raji (+) (refer to approximately 5%, 10%, 20%, 30%, 40% and 50% GFP positive cells)
4 | B4 | Raji (4+) (refer to approximately 5%, 10%, 20%, 30%, 40% and 50% GFP positive cells)
